How the values were obtained:
SHP2-C SH2 = assay: SH2 binding enrichment of the phosphorylated peptide, bacterial display (enrichment ratio); higher = better substrate or ligand; peptides without Tyr show the background
c-Src SH2 = assay: as above
Grb2 SH2 = Grb2 SH2 (UniProt P62993); assay: as above
Hck = Hck (UniProt P08631); assay: phosphorylation enrichment, bacterial display (enrichment ratio); higher = better substrate or ligand; peptides without Tyr show the background
c-Src = assay: as above
EPHB2 = EPHB2 (UniProt P29323); assay: as above
MERTK = MERTK (UniProt Q12866); assay: as above
Jak2 = Jak2 (UniProt O60674); assay: as above
FGFR3 = FGFR3 (UniProt P22607); assay: as above
Fyn = Fyn (UniProt P06241); assay: as above
AncSZ = assay: as above
Fes = Fes (UniProt P07332); assay: as above
Fer (mouse) = assay: as above
EPHB1 = EPHB1 (UniProt P54762); assay: as above
FGFR1 = FGFR1 (UniProt P11362); assay: as above
c-Abl (mouse) = assay: as above
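Wherever SH2 binding enrichment of the phosphorylated peptide, bacterial display is given: peptide library displayed on the E. coli surface as eCPX fusions, selected cells deep-sequenced, score is each peptide's frequency after selection divided by its frequency in the input.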
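Wherever phosphorylation enrichment, bacterial display is given: 11-residue human phosphosite peptides and single-mutation variants displayed on the E. coli surface, counted by deep sequencing, each peptide's frequency after selection divided by its frequency in the unselected input library; frequency after pTyr selection over input frequency; kinase dosed for 20-30% of maximal phosphorylation in three min.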

Sequence of FGFR1 (P11362 whole entry, looked up): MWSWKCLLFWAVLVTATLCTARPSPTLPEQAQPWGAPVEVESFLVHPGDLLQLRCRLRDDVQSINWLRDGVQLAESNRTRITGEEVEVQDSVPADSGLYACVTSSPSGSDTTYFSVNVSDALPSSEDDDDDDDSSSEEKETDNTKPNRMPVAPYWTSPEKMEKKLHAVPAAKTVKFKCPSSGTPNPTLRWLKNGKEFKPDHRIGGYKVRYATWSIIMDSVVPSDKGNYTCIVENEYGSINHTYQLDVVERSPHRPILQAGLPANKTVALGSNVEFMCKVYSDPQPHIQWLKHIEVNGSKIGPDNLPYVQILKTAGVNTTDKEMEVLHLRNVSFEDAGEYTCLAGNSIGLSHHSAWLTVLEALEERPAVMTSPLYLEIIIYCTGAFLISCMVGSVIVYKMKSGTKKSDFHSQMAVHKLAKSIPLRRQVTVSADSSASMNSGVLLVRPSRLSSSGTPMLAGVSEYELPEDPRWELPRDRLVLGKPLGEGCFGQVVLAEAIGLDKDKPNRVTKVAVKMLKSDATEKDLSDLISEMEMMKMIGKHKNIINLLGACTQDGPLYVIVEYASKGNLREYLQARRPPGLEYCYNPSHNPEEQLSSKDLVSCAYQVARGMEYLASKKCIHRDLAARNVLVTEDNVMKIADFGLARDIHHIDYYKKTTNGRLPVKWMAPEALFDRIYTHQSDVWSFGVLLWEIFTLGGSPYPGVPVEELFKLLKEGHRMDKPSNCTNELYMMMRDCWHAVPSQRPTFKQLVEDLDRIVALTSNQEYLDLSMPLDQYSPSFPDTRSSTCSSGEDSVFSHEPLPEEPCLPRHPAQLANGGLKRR
Sequence of FGFR3 (P22607 whole entry, looked up): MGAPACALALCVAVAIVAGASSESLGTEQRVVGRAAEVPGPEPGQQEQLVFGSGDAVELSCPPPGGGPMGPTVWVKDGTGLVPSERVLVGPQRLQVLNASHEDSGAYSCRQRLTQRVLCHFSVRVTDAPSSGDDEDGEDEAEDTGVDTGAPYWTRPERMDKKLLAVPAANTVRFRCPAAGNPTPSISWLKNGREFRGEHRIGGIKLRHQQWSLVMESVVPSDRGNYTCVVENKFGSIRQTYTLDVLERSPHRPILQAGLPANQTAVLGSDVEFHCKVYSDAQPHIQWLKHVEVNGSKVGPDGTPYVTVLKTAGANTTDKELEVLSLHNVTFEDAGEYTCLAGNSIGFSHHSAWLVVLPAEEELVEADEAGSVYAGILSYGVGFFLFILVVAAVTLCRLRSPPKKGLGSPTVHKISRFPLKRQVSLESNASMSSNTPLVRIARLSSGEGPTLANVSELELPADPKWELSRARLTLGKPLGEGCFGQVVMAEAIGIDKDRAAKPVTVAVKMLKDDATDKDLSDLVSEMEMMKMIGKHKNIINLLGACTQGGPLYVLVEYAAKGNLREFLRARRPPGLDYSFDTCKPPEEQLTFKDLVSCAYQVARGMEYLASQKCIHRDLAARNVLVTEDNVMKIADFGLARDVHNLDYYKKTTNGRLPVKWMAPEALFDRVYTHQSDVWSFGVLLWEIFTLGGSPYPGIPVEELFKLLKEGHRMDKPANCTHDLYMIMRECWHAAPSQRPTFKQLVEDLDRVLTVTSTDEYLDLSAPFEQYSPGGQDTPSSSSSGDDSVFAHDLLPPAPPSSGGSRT
Sequence of MERTK (Q12866 whole entry, looked up): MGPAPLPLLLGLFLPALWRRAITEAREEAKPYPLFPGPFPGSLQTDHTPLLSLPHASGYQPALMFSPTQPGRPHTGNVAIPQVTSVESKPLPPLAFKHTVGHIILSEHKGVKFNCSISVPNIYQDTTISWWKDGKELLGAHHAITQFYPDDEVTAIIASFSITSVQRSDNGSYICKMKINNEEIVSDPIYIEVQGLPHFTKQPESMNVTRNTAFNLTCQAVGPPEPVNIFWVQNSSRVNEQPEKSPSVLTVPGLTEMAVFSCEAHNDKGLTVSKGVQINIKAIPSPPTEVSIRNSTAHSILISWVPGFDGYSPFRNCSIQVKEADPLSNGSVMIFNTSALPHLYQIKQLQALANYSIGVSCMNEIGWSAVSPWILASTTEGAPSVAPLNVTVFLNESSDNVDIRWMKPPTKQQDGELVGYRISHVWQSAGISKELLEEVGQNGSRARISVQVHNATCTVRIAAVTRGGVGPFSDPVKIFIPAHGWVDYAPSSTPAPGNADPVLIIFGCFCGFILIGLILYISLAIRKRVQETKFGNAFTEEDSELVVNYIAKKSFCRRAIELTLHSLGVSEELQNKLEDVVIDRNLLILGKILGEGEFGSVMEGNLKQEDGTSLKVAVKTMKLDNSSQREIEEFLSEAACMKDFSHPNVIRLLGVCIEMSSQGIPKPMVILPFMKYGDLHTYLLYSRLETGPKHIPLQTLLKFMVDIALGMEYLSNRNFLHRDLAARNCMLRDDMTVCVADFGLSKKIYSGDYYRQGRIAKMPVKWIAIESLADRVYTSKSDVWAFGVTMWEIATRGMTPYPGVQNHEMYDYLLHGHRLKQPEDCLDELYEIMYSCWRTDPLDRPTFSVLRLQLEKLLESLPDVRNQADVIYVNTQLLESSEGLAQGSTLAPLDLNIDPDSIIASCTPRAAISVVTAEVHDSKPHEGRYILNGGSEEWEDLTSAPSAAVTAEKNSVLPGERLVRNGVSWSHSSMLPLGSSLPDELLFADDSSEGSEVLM
Sequence of Fes (P07332 whole entry, looked up): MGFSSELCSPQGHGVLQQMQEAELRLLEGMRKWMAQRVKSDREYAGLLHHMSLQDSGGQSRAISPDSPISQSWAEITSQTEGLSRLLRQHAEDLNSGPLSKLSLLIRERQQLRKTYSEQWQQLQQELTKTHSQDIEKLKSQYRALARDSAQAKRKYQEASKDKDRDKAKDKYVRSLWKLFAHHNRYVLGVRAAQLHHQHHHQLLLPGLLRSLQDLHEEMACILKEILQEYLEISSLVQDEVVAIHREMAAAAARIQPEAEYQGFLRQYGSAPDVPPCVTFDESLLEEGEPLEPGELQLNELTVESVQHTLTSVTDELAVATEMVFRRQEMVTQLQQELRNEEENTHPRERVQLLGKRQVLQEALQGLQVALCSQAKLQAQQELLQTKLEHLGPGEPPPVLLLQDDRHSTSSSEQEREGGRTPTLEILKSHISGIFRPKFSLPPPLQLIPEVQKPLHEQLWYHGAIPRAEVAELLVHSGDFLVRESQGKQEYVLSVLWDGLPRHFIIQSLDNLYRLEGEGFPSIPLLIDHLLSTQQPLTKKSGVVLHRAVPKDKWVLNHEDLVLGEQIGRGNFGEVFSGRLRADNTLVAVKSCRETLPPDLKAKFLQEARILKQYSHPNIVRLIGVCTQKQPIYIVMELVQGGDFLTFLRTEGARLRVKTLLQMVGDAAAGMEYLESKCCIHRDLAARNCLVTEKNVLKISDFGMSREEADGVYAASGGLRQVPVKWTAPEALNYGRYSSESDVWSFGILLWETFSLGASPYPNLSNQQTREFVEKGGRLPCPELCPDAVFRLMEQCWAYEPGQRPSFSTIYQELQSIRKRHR
Sequence of EPHB1 (P54762 whole entry, looked up): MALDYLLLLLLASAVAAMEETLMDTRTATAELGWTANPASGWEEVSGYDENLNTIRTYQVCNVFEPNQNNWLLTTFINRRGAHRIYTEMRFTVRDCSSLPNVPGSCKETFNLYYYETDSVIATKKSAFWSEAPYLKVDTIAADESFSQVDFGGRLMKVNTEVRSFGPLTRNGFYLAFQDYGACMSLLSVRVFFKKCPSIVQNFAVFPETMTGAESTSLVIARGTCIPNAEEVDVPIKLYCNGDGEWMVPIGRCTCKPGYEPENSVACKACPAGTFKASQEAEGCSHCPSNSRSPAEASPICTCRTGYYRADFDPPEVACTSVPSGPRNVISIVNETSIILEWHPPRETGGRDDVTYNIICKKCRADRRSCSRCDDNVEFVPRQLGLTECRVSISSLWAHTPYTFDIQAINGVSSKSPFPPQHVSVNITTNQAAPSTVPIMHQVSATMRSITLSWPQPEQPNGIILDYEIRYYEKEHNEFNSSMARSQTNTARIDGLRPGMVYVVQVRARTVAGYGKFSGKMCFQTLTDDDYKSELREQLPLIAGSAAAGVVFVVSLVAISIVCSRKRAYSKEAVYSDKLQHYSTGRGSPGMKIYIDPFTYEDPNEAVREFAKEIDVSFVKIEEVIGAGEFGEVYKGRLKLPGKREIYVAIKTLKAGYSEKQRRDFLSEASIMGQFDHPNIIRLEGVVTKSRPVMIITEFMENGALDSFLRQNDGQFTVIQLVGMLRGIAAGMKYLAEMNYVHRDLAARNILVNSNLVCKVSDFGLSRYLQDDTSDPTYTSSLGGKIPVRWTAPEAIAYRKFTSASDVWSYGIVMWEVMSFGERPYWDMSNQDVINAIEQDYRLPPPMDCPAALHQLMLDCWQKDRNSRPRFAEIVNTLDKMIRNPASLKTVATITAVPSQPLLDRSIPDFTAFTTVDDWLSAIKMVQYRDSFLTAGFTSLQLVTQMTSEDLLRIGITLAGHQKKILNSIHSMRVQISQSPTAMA
Sequence of Grb2 SH2 (P62993 whole entry, looked up): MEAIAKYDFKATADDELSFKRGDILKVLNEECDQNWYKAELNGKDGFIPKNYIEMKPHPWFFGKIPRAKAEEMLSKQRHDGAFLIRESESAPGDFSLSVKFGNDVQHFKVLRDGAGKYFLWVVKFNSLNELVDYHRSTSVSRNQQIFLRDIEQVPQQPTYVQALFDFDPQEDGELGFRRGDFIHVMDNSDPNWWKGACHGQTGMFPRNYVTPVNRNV

| Sequence | SH2 binding enrichment (SHP2-C SH2) | SH2 binding enrichment (c-Src SH2) | SH2 binding enrichment (Grb2 SH2) | phosphorylation enrichment (Hck) | phosphorylation enrichment (c-Src) | phosphorylation enrichment (EPHB2) | phosphorylation enrichment (MERTK) | phosphorylation enrichment (Jak2) | phosphorylation enrichment (FGFR3) | phosphorylation enrichment (Fyn) | phosphorylation enrichment (AncSZ) | phosphorylation enrichment (Fes) | phosphorylation enrichment (Fer (mouse)) | phosphorylation enrichment (EPHB1) | phosphorylation enrichment (FGFR1) | phosphorylation enrichment (c-Abl (mouse)) |
| --- | --- | --- | --- | --- | --- | --- | --- | --- | --- | --- | --- | --- | --- | --- | --- | --- |
| FHLLPYTVRAM [PARS2_Y93_YF] | 1.57 | 1.34 | 1.11 | 0.501 | 0.711 | 0.633 | 0.438 | 0.691 | 0.551 | 0.446 | 0.8 | 0.971 | 0.514 | 0.581 | 0.564 | 0.546 |
| SSPQLYLVPFL [TAF4_Y652_P651L] | 1.21 | 0.721 | 1.35 | 0.907 | 0.721 | 3.08 | 7.97 | 7 | 2.11 | 0.7 | 1.3 | 0.974 | 1.23 | 4.26 | 2.18 | 13.2 |
| ILTYKYLQKPM [KIT_Y547] | 0.362 | 0.428 | 0.729 | 0.458 | 0.521 | 0.591 | 0.487 | 0.801 | 0.518 | 0.41 | 0.666 | 1.15 | 0.495 | 0.686 | 0.396 | 0.654 |
| YGSSSYGGAGG [RPA2_Y14] | 0.793 | 0.438 | 0.734 | 0.39 | 0.442 | 0.305 | 0.359 | 0.476 | 0.409 | 0.414 | 0.457 | 0.626 | 0.381 | 0.714 | 0.35 | 0.899 |
| QIGRKYKKVRF [F8_Y442_R437Q] | 0.622 | 0.321 | 0.675 | 1.19 | 1.03 | 0.44 | 0.923 | 1.62 | 1.11 | 0.795 | 0.84 | 1.04 | 0.836 | 0.902 | 0.807 | 0.502 |
| VNKIYHPDFIV [LIG3_Y768_Y768H] | 0.72 | 0.529 | 0.747 | 0.481 | 0.484 | 0.417 | 0.483 | 0.796 | 0.589 | 0.446 | 0.62 | 0.715 | 0.388 | 0.355 | 0.453 | 0.562 |
| SVTCTYSPAPN [TP53_Y126_L130P] | 0.554 | 0.425 | 0.635 | 0.501 | 0.509 | 0.581 | 0.362 | 0.999 | 0.83 | 0.435 | 1.12 | 1.14 | 0.503 | 0.517 | 0.495 | 0.776 |
| KNSSIYVVANI [VNN1_Y134_N131S] | 0.942 | 0.646 | 0.988 | 0.662 | 0.691 | 0.64 | 0.751 | 1.31 | 0.873 | 0.567 | 1.23 | 1.38 | 0.622 | 0.681 | 0.528 | 1.07 |
| KFEDVYVRICL [B3GALNT1_Y269_G271R] | 0.758 | 0.472 | 0.816 | 0.479 | 0.545 | 0.582 | 0.436 | 1.28 | 0.926 | 0.452 | 1.64 | 1.38 | 0.593 | 0.655 | 0.512 | 1.03 |
| PPAPRCHHSAV [LZTR1_Y119_Y119C] | 1.51 | 0.89 | 1.31 | 1.28 | 0.718 | 0.701 | 0.566 | 1.75 | 1.21 | 0.921 | 1.61 | 2.01 | 2.15 | 1.17 | 0.839 | 0.842 |
| SRDDYYETIAM [NPY1R_Y347_D346Y] | 0.431 | 3.29 | 0.589 | 1.18 | 0.656 | 1.53 | 0.467 | 0.808 | 6.01 | 0.798 | 1.33 | 1.01 | 4.75 | 2.19 | 8.35 | 0.634 |
| ETALHYIHDGI [GATD3A_Y250] | 1.03 | 0.501 | 0.786 | 0.432 | 0.48 | 0.525 | 0.431 | 0.775 | 0.637 | 0.433 | 0.818 | 0.796 | 0.525 | 0.524 | 0.412 | 0.659 |
| ESKKHYGFSLF [ANXA3_Y295_F291S_YF] | 0.717 | 0.644 | 1.03 | 0.528 | 0.453 | 0.541 | 0.526 | 0.93 | 0.678 | 0.513 | 1.01 | 1.03 | 0.526 | 0.574 | 0.572 | 0.676 |
| VTRAKYFIRDE [GNAS_Y339] | 0.54 | 0.358 | 0.989 | 0.409 | 0.375 | 0.405 | 0.405 | 0.622 | 0.432 | 0.404 | 0.654 | 0.694 | 0.325 | 0.356 | 0.45 | 0.458 |
| KAPPTYDTVLQ [CYP3A4_Y347] | 0.556 | 2.28 | 0.887 | 2.98 | 1.44 | 7.86 | 1.89 | 0.576 | 0.483 | 2.46 | 0.686 | 0.735 | 2.09 | 6.72 | 0.36 | 0.663 |
| YEEDSYSHIMA [FDPS_Y388] | 0.564 | 2.41 | 0.733 | 0.976 | 0.813 | 0.714 | 0.561 | 1.06 | 1.18 | 0.64 | 1.85 | 1.26 | 1.48 | 0.67 | 1.35 | 0.663 |
| PSDLLYILDIQ [ITGA2B_Y845] | 0.492 | 0.571 | 1.19 | 1.57 | 4.22 | 1.06 | 2.82 | 2.24 | 1.91 | 2.82 | 2.77 | 2.33 | 1.32 | 1.07 | 1.35 | 1.17 |

| Sequence | SH2 binding enrichment (SHP2-C SH2) | SH2 binding enrichment (c-Src SH2) | SH2 binding enrichment (Grb2 SH2) | phosphorylation enrichment (Hck) | phosphorylation enrichment (c-Src) | phosphorylation enrichment (EPHB2) | phosphorylation enrichment (MERTK) | phosphorylation enrichment (Jak2) | phosphorylation enrichment (FGFR3) | phosphorylation enrichment (Fyn) | phosphorylation enrichment (AncSZ) | phosphorylation enrichment (Fes) | phosphorylation enrichment (Fer (mouse)) | phosphorylation enrichment (EPHB1) | phosphorylation enrichment (FGFR1) | phosphorylation enrichment (c-Abl (mouse)) |
| --- | --- | --- | --- | --- | --- | --- | --- | --- | --- | --- | --- | --- | --- | --- | --- | --- |
| PNAYIYVVQLP [L1CAM_Y420_A415P] | 1.14 | 0.862 | 1.36 | 0.832 | 1.31 | 1.35 | 2.25 | 1.75 | 1.61 | 0.941 | 1.53 | 1.76 | 0.47 | 1.08 | 1.6 | 1.18 |
| QKFMAYLSQGW [HLCS_Y236_G241W] | 1.5 | 0.689 | 0.917 | 0.501 | 0.439 | 1.05 | 0.83 | 1.75 | 1.14 | 0.639 | 1.19 | 1.32 | 0.86 | 0.812 | 0.668 | 0.903 |
| RREWFYEVIIA [BACE1_Y260_V265A_YF] | 0.605 | 0.512 | 0.807 | 0.598 | 0.498 | 0.391 | 1.24 | 0.807 | 0.764 | 0.593 | 0.927 | 0.733 | 0.66 | 0.515 | 0.784 | 0.483 |
| KKEGPYDVVVL [PARK7_Y67] | 0.629 | 0.827 | 0.801 | 0.57 | 1.33 | 0.49 | 0.7 | 0.691 | 0.546 | 1.01 | 0.675 | 0.776 | 6.5 | 0.492 | 0.494 | 0.631 |
| IRNRDYDDIDD [TTYH2_Y424_T419I] | 0.486 | 0.537 | 0.628 | 0.515 | 0.491 | 0.575 | 0.541 | 0.676 | 0.676 | 0.594 | 1.07 | 0.887 | 0.494 | 0.466 | 0.7 | 0.649 |
| IKRIAYEFVEM [ADA_Y84] | 0.691 | 0.973 | 0.729 | 0.414 | 0.383 | 0.478 | 0.388 | 0.701 | 0.58 | 0.438 | 0.85 | 0.837 | 2.96 | 0.387 | 0.564 | 0.599 |
| MDFRSYPREFG [RBM10_Y44_YF] | 0.975 | 0.578 | 1.09 | 0.388 | 0.431 | 0.454 | 0.352 | 0.63 | 0.511 | 0.366 | 0.606 | 0.858 | 0.366 | 0.437 | 0.529 | 0.455 |
| YCRHNYGAVES [HLA-DRB1_Y112_V114A] | 0.704 | 1.34 | 0.902 | 0.549 | 0.503 | 0.623 | 0.549 | 0.739 | 0.659 | 0.416 | 0.658 | 0.678 | 0.514 | 0.566 | 0.519 | 0.696 |
| TQKLAYVELQQ [CENPF_Y700_M701V] | 1.75 | 0.932 | 0.874 | 0.453 | 0.525 | 0.561 | 0.395 | 0.904 | 0.643 | 0.445 | 1.07 | 1 | 0.449 | 0.507 | 0.754 | 1.03 |
| MKGDYYCYLAE [YWHAG_Y131_R132C] | 0.779 | 1.36 | 0.789 | 1.48 | 2.49 | 5.89 | 5.47 | 5.78 | 9.01 | 2.16 | 3 | 1.5 | 1.07 | 5.59 | 11.4 | 1.85 |
| STTSDYQWDFS [MTDH_Y364_V368F] | 0.637 | 0.573 | 0.821 | 0.524 | 0.58 | 0.776 | 0.409 | 1.14 | 1.27 | 0.473 | 1.36 | 1.1 | 0.598 | 0.905 | 1.24 | 0.736 |
| HSGLAYTMERS [GLUD1_Y512] | 0.733 | 0.314 | 0.698 | 0.383 | 0.763 | 0.495 | 0.521 | 0.985 | 0.543 | 0.685 | 0.933 | 1.26 | 0.561 | 0.897 | 0.403 | 0.56 |
| QPGDIYHQTWA [GBA_Y244] | 0.352 | 0.439 | 0.626 | 3.66 | 3.42 | 0.88 | 2.84 | 0.938 | 2.69 | 3.11 | 0.989 | 0.963 | 1.3 | 0.825 | 3.42 | 2.9 |
| GMAHNYRNSSQ [AASS_Y188] | 0.57 | 0.482 | 0.702 | 0.414 | 0.386 | 0.47 | 0.418 | 0.434 | 0.431 | 0.446 | 0.589 | 0.45 | 0.384 | 0.255 | 0.371 | 0.313 |
| IALSKYGRVKR [FGF6_Y186] | 0.447 | 0.501 | 0.711 | 0.412 | 0.463 | 0.424 | 0.438 | 0.57 | 0.373 | 0.358 | 0.61 | 0.564 | 0.372 | 0.32 | 0.359 | 0.552 |
| AELVQYYMEHH [PTPN11_Y80] | 1.13 | 0.683 | 0.688 | 0.974 | 0.845 | 1.01 | 0.68 | 1.19 | 0.954 | 0.654 | 1.2 | 1.26 | 0.494 | 1.06 | 0.827 | 0.826 |

From the supplement of paper PMC10065799, “High-throughput profiling of sequence recognition by tyrosine kinases and SH2 domains using bacterial peptide display” (eLife, 2023)
